Results published in article PMC314469, “Protein Interaction Networks by Proteome Peptide Scanning” (PLoS Biology, 2004).

T1: Yfr024 SH3 (LSB3_YEAST), P43603
T1 chain: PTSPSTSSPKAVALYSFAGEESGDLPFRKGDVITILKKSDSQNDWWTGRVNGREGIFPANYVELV

T2: Boi1 SH3 (BOI1_YEAST), P38041
T2 chain: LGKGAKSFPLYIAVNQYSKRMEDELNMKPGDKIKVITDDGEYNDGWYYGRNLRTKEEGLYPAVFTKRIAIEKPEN

T3: Rvs167 SH3 (RV167_YEAST), P39743
T3 chain: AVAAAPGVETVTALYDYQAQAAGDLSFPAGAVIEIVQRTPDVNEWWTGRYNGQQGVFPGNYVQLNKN

T4: Yhr016c SH3 (YSC84_YEAST), P32793
T4 chain: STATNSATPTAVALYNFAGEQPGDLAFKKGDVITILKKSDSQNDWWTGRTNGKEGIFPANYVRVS

T5: Boi2 SH3 (BOI2_YEAST), P39969
T5 chain: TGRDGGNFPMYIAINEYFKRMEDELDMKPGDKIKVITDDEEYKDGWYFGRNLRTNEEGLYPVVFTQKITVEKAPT


Tests used:
Experiment in all cases: SPOT array
[1] = molecular target: T1, Yfr024 SH3 (LSB3_YEAST), P43603
[2] = molecular target: T2, Boi1 SH3 (BOI1_YEAST), P38041
[3] = molecular target: T3, Rvs167 SH3 (RV167_YEAST), P39743
[4] = molecular target: T4, Yhr016c SH3 (YSC84_YEAST), P32793
[5] = molecular target: T5, Boi2 SH3 (BOI2_YEAST), P39969

Row | Binder | normalised SPOT signal, Boehringer light units (BLU); mean over the file's lines of this peptide [1] | normalised SPOT signal, Boehringer light units (BLU); mean over the file's lines of this peptide [2] | normalised SPOT signal, Boehringer light units (BLU); mean over the file's lines of this peptide [3] | normalised SPOT signal, Boehringer light units (BLU); mean over the file's lines of this peptide [4] | normalised SPOT signal, Boehringer light units (BLU); mean over the file's lines of this peptide [5]
1 | ASYPLTPRRYVPED [YLR244C 90-103] | 6950 | 2830 | 1380 | 4120 | 23400
2 | ANLPNRPKRGEGIN [YMR047C 1035-1048] | 6370 | 145 | 39.8 | 1230 | 27.9
3 | APAPLDPFKTGGNN [YBL007C 849-862] | 35.4 | 123 | 47.4 | 22.8 | 68.1
4 | ALRPTPPERGSFPL [YLL018C-A 11-24] | 1960 | 230 | 448 | 917 | 27.5
5 | ARDPILPYRLVKDR [YHL040C 345-358] | 16800 | 322 | 437 | 4220 | 46.6
6 | AMTPFSPRKSHINN [YNL269W 98-111] | 1860 | 642 | 422 | 256 | 884
7 | ALRPTGPDRGDGFD [YNL139C 1465-1478] | 145 | 132 | 59.8 | 179 | 8.2
8 | ALVPFAPFKLLKDR [YHL047C 340-353] | 121 | 16.7 | 136 | 123 | 40.5
9 | AQRPRGPQRGKDIK [YNL064C 104-117] | 576 | 119 | 78.6 | 112 | 73.2
10 | APTPPAPSRSEKLH [YBR108W 727-740] | 4690 | 152 | 49.2 | 448 | 16.8
11 | ALKPKTPSKAPRKR [YBR060C 65-78] | 2060 | 247 | 300 | 341 | 103
12 | ATRPSSPMRHKSIS [YAR019C 585-598] | 6110 | 168 | 1180 | 1730 | 302
13 | AMNPESPTRDQIFL [YMR012W 411-424] | 648 | 34.6 | 63 | 125 | 39.3
14 | ASMPRVPLKIVLKD [YIL078W 68-81] | 6880 | 101 | 581 | 690 | 282
15 | ASKPSVPPRNYFSK [YIL108W 577-590] | 20100 | 1130 | 3860 | 9380 | 44.5
16 | APLPPQPRKHDKTP [YBL105C 587-600] | 1150 | 217 | 52.6 | 372 | 57.8
17 | AMPPTLPHRDWKDY [YGL153W 84-97] | 14600 | 113 | 2620 | 25500 | 39.4
